Test results reported in article PMC4851294 (PLoS ONE, 2016).

Tested on: O=C[C@H](O)[C@H](O)COP(=O)(O)O
Assay: purified protein

**Q.** What does the source list for “3-deoxy-D-arabino-heptulosonate 7-phosphate synthase (MtuDAH7PS) (Mycobacterium tuberculosis H37Rv)”?
**A.** Km: 28 ± 2 µM; kcat: 4.7 ± 0.1 s⁻¹; kcat/Km: 170000 ± 20000 M⁻¹ s⁻¹
